The values that follow come from US20070213269.

One data set concerns PBS1 (synthetic). Nature of the data set: EMSA.
For another data set, the system named is PBS2 (synthetic). Nature of the data set: EMSA. In general terms: In EMSA bound probe runs differently from free probe, usually more slowly.
Another data set deals with PBS1a (synthetic). In words: EMSA.
For another data set, the system named is KRAB-PBS1 (synthetic). Nature of the data set: cell_activity. The conditions noted are these: with Tat.
Another data set concerns KRAB-PBS1a (synthetic). Nature of the data set: cell_activity. The conditions noted are these: with Tat.
A further data set concerns KRAB-PBS2 (synthetic). Nature of the data set: cell_activity. The conditions noted are these: for activity (fold repression): with Tat.
In a further data set the test system is PBS3 (synthetic). Nature of the data set: EMSA.

In the case of “AAATCTCTAGCAGTGGCG [HIV-1 PBS hairpin, PBS1 site]”, the Kd (as a rule, the equilibrium constant for the complex coming apart) with PBS1 (synthetic) was determined as 0.79 nM.

The substance “GCAGTGGCGCCCGAACAG [HIV-1 PBS hairpin, PBS2 site]” displayed a Kd in the data set with PBS2 (synthetic) of 2.4 nM. “GTGTGGAAAATCTCTAGCAGTGGCG [HIV-1 PBS hairpin, PBS1a site]” showed a Kd in the data set on PBS1a (synthetic) of 1.25 nM. As for “HIV-1 LTR-luciferase reporter (LTR658-luc)”, the results for the activity (fold repression) in the data set with KRAB-PBS1 (synthetic) (HeLa), in the data set with KRAB-PBS1a (synthetic) (HeLa) and in the data set on KRAB-PBS2 (synthetic) (HeLa) were 20, 9.5 and 28, respectively. The substance HIV-1 with wild-type B-subtype LTR displayed an activity (% inhibition of virus production) with KRAB-PBS2 (synthetic) (transduced PBMCs, NL4-3 challenge) above 90. Substance “TGGCGCCCGAACAGGGAC [HIV-1 PBS hairpin, PBS3 site]” displayed a Kd with PBS3 (synthetic) of 0.93 nM.

“chromosomally integrated HIV-1 LTR reporter (TZM-bl)”: the activity (fold repression) with KRAB-PBS1 (synthetic) (TZM-bl luciferase) came to 7; in the data set with KRAB-PBS1a (synthetic) (TZM-bl luciferase) it was 15; in the data set with KRAB-PBS2 (synthetic) (TZM-bl luciferase), 20.
